Legend:
[1] = system: B16-BL6 melanoma cells; test: B16-BL6 experimental metastasis assay; format: in vivo, C57BL/6J mice
Procedure: C57BL/6J mice were injected via the tail vein with 5×10^4 B16-BL6 melanoma cells on day 0. On day 3, groups of five mice received daily subcutaneous doses of either buffer control, 1.5 nmol (1.5 mg/kg/day) of rhEndostatin in combination with 0, 15, 75 or 375 nmol of control or E37 peptide, or control or E37 peptide alone for eleven days. All mice were sacrificed on day 14, and the number of pulmonary surface metastases in each animal counted. Error bars indicate standard deviation of the mean.
C57BL/6J mice (n=8) were injected intravenously (i.v.) with 5×10^4 B16-BL6 cells/mouse. Three days later treatment commenced. 100 μl of citrate-phosphate buffer (66 mM Sodium Phosphate, 17 mM Citric acid, 59 mM NaCl pH 6.2) containing 1.5 nmol of rhEndostatin and 100 μl of PBS containing either 0, 15, 75 or 375 nmol of control or E37 peptide were mixed and injected subcutaneously (s.c.) daily for 11 days. All mice were then sacrificed, their lungs removed and the number of surface metastases counted. Results were analyzed for statistical significance using the 2-tailed Student's t-test.
The following experiment was conducted to determine the interaction of E37 peptide and Endostatin protein. Briefly, the B16BL6 experimental metastasis assay, as known to those of skill in the art and further described in International Patent Application number PCT/US99/11418, was performed as follows. 5×10^4 B16-BL6 cells in 200 μl of PBS were injected into C57BL/6J mice via the tail vein. Three days post injection treatment was started. The injection received by eight groups of mice were: 1) citrate phosphate/PBS buffer, 2) ^30 μg Endostatin protein (in 100 μl PBS), 3) 30 μg Endostatin protein (in 200 μl PBS), 4) 30 μg Endostatin protein plus 50 times molar excess of control peptide (in 200 μl PBS), 5) 30 μg Endostatin protein plus 250 times molar excess of control peptide (in 200 μl PBS), 6) 30 μg Endostatin protein plus 10 times molar excess of E37 peptide (in 200 μl PBS), 7) 30 μg Endostatin protein plus 50 times molar excess of E37 peptide (in 200 μl PBS), and 8) 30 μg Endostatin protein plus 250 times molar excess of E37 peptide (in 200 μl PBS). Doses were administered daily for eleven days posterior to the thoracic cavity subcutaneously. All mice were sacrificed, the lungs removed and the number of surface metastases in each animal were counted under a stereo microscope.

[2] = system: HUVEC microfilaments; test: Fluorescent staining of formalin fixed endothelial cells with Alexa 488-labeled rhEndostatin; format: cell-based, human; conditions: 40 μg/ml Alexa 488-labeled rhEndostatin with anti-tropomyosin TM311; HUVECs
Procedure: (A), HUVECs, (B), HAECs and (C), HMVECs were incubated in the presence of 40 micrograms per milliliter (μg/ml) Alexa 488-labeled rhEndostatin and photographed at 100× magnification under Alexa 488 (green) excitation wavelength. (D) and (E), HUVECs were incubated simultaneously in anti-tropomyosin TM311 ascites fluid and 40 micrograms per milliliter (μg/ml) Alexa 488-labeled rhEndostatin followed by incubation in Alexa 594 conjugated goat anti-mouse IgG (H+L). The same field was photographed under Alexa 488 (green) and Alexa 594 (red) excitation wavelengths at 100× magnification.
HUVECs were incubated in the presence of 40 micrograms per milliliter (μg/ml) Alexa 488-labeled rhEndostatin alone (A), or in the presence of a 50-fold molar excess of control peptide (B), or E37 peptide (C). Cells were photographed using the same exposure times at 100x magnification under Alexa 488 (green) excitation wavelength.
To detect the binding of Alexa-labeled rhEndostatin 1×10^4 HUVEC, HMVEC and HAECs were plated on 1.5% gelatin coated Nalge Nunc Lab Tek II chamber slides (Naperville, Ill.) and fixed in 10% neutral buffered formalin followed by a methanol wash. The chamber slides were incubated in PBS/1% calf serum containing 40 μg/ml (2 μM) of Alexa 488-labeled rhEndostatin (Narum et al., manuscript in preparation) for 1 hr at room temperature. The slides were washed in PBS, coverslips mounted using fluorescent mounting media (Kirkegaard and Perry Laboratories, Gaithersburg, Md.) and cells photographed under Alexa 488 excitation wavelength. Co-localization studies were performed as above except cells were incubated in PBS/1% calf serum containing 1:200 mouse anti-tropomyosin TM311 (Sigma, St. Louis, Miss.) and 40 μg/ml of Alexa 488-labeled rhEndostatin followed by incubation with goat anti-mouse IgG (H+L) conjugated to Alexa 594 (Molecular Probes, Eugene, Oregon). The same fields were photographed under Alexa 488 and Alexa 594 wavelengths. […]

[3] = system: intratumoral blood flow; conditions: systemic rhEndostatin therapy; cited from earlier work

B1: rhEndostatin: recombinant human Endostatin, antiangiogenic fragment of a C-terminal non-collagenous region of a collagen protein, produced in P. pastoris (protein)
chain: HSHRDFQPVLHLVALNSPLSGGMRGIRGADFQCFQQARAVGLAGTFRAFLSSRLQDLYSIVRRADRAAVPIVNLKDELLFPSWEALFSGSEGPLKPGARIFSFDGKDVLRHPTWPQKSVWHGSDPNGRRLTESYCETWRTEAPSATGQASSLLGGRLLGQSAASCHHAYIVLCIENSFMTASK
- inhibition of lung metastasis ([1]; 1.5 nmol rhEndostatin co-administered with 250-fold molar excess of E37 peptide): 11%
- inhibition of the formation of lung metastasis ([1]; 30 μg Endostatin protein alone, daily s.c. for eleven days): approximately 79%
- inhibition of the formation of lung metastasis ([1]; 30 μg Endostatin protein plus 10 fold molar excess of E37 peptide): approximately 76%
- inhibition of the formation of lung metastasis ([1]; 30 μg Endostatin protein plus 50 fold molar excess of E37 peptide): approximately 61%
- inhibition of the formation of lung metastasis ([1]; 30 μg Endostatin protein plus 50 fold molar excess of negative control peptide): approximately 79%
- inhibition of the formation of lung metastasis ([1]; 30 μg Endostatin protein plus 250 fold molar excess of E37 peptide): approximately 21%
- inhibition of the formation of lung metastasis ([1]; 30 μg Endostatin protein plus 250 fold molar excess of negative control peptide): approximately 73%
- inhibition of growth of experimental B16-BL6 lung metastases compared to buffer treated control mice ([1]; daily 1.5 nmol rhEndostatin (1.5 mg/kg/day)): greater than 70%
- localization of fluorescently labeled rhEndostatin in fixed cells [2]: co-localized to HUVEC microfilaments
- reduction of intratumoral blood flow [3]: 50%

Reference: US20020077289A1, “Angiostatin and endostatin binding proteins and methods of use” (priority 2000, published 2002)
